Laboratory results from IntAct's records for PubMed 22916032.

B1: U3 small nucleolar RNA-associated protein 4 homolog (Homo sapiens), Q969X6 (parent)
chain: MGEFKVHRVRFFNYVPSGIRCVAYNNQSNRLAVSRTDGTVEIYNLSANYFQEKFFPGHESRATEALCWAEGQRLFSAGLNGEIMEYDLQALNIKYAMDAFGGPIWSMAASPSGSQLLVGCEDGSVKLFQITPDKIQFERNFDRQKSRILSLSWHPSGTHIAAGSIDYISVFDVKSGSAVHKMIVDRQYMGVSKRKCIVWGVAFLSDGTIISVDSAGKVQFWDSATGTLVKSHLIANADVQSIAVADQEDSFVVGTAEGTVFHFQLVPVTSNSSEKQWVRTKPFQHHTHDVRTVAHSPTALISGGTDTHLVFRPLMEKVEVKNYDAALRKITFPHRCLISCSKKRQLLLFQFAHHLELWRLGSTVATGKNGDTLPLSKNADHLLHLKTKGPENIICSCISPCGSWIAYSTVSRFFLYRLNYEHDNISLKRVSKMPAFLRSALQILFSEDSTKLFVASNQGALHIVQLSGGSFKHLHAFQPQSGTVEAMCLLAVSPDGNWLAASGTSAGVHVYNVKQLKLHCTVPAYNFPVTAMAIAPNTNNLVIAHSDQQVFEYSIPDKQYTDWSRTVQKQGFHHLWLQRDTPITHISFHPKRPMHILLHDAYMFCIIDKSLPLPNDKTLLYNPFPPTNESDVIRRRTAHAFKISKIYKPLLFMDLLDERTLVAVERPLDDIIAQLPPPIKKKKFGT
partner: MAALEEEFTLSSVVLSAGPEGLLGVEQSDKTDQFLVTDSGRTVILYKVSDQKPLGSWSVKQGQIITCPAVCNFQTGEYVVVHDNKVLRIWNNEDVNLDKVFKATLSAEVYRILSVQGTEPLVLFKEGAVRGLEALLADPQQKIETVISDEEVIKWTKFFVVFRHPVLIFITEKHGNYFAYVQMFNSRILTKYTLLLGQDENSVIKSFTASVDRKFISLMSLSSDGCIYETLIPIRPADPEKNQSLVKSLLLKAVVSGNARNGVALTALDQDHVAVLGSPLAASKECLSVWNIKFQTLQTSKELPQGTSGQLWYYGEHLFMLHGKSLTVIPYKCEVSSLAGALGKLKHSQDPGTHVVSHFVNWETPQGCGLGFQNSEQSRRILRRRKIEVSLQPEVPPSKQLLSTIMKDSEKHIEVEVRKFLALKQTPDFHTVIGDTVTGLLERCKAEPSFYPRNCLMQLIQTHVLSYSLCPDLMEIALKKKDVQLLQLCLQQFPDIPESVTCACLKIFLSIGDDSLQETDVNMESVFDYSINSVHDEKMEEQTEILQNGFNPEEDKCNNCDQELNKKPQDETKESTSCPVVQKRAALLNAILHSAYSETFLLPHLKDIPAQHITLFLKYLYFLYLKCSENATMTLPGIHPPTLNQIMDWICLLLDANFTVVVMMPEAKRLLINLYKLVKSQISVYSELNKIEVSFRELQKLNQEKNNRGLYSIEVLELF

Variants of: B1
Conditions: with nol11_human NOL11, Q9H8H0

effect of a mutation on the interaction	Variant
decreasing interaction strength	R565W
